The record followed here is patent publication US6872803.

The target of test [1] is Bovine lung-derived ANP receptor (bovine). In words: displacement of 125I-rat ANP from bovine lung membrane fraction, filter binding. Background: In a radioligand displacement assay an active substance lowers the binding of a labelled ligand.
Test [2] deals with BK receptor derived from guinea pig ilea (guinea pig). Nature of the test: inhibition of 3H-BK (200 pM) binding to guinea pig ileum membrane fraction; test compound at 10^-8 M.
Chain of BK receptor derived from guinea pig ilea (guinea pig) (O70526 whole entry): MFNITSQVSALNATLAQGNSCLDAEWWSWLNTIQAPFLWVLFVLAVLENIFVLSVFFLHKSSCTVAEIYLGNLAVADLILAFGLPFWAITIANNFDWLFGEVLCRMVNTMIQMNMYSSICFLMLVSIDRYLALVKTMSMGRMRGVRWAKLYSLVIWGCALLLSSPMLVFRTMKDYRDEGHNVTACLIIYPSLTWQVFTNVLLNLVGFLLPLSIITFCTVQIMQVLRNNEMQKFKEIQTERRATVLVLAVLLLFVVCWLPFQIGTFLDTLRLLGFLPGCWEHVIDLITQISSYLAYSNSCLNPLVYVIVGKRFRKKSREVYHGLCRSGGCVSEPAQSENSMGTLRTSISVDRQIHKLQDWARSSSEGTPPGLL
The target is the same in test [3]. In words: inhibition of 3H-BK (200 pM) binding to guinea pig ileum membrane fraction; test compound at 10^-7 M.

[ ]: non-standard residue; d: D form. Hyp = O=C(O)[C@@H]1C[C@@H](O)CN1; NMeI = CC[C@H](C)[C@H](NC)C(=O)O

Chain of Bovine lung-derived ANP receptor (bovine) (P10730 42-537): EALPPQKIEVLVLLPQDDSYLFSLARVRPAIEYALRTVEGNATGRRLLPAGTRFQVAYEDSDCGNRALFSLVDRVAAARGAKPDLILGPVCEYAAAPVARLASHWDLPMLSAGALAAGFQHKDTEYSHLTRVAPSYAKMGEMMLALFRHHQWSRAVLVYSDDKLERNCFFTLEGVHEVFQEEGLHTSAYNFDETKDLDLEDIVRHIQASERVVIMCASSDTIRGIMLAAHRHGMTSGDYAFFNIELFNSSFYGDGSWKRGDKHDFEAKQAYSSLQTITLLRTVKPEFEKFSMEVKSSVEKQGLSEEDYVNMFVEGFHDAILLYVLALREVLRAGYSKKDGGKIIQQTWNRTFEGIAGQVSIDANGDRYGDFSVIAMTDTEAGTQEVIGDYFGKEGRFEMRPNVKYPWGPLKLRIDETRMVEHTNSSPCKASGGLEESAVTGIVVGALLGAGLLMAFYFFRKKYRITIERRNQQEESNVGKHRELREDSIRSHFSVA

B1: Compound (j), H-Phe-Gly-Gly-D-Arg-Ile-Asp-D-Arg-Ile-NH2 (peptide)
peptide: H-FGG[dR]ID[dR]I-NH2
SMILES: CC[C@H](C)[C@H](NC(=O)[C@@H](CCCNC(=N)N)NC(=O)[C@H](CC(=O)O)NC(=O)[C@@H](NC(=O)[C@@H](CCCNC(=N)N)NC(=O)CNC(=O)CNC(=O)[C@@H](N)Cc1ccccc1)[C@@H](C)CC)C(N)=O
What is called IC50 is the concentration needed to halve the response being measured. B1 showed a half-maximal inhibitory concentration (IC50) in test [1] of 5400 nM.

B2: Compound (m), H-D-Arg-Arg-Pro-Hyp-Gly-Phe-Ser-D-Phe-Leu-Arg-OH (peptide)
peptide: H-[dR]RP[Hyp]GFS[dF]LR-OH
SMILES: CC(C)C[C@H](NC(=O)[C@@H](Cc1ccccc1)NC(=O)[C@H](CO)NC(=O)[C@H](Cc1ccccc1)NC(=O)CNC(=O)[C@@H]1C[C@@H](O)CN1C(=O)[C@@H]1CCCN1C(=O)[C@H](CCCNC(=N)N)NC(=O)[C@H](N)CCCNC(=N)N)C(=O)N[C@@H](CCCNC(=N)N)C(=O)O
On to B2, for which the Percentage inhibition (%) in test [2] worked out at 20%; in test [3], 68%.

B3: Compound (k), H-Phe-Gly-Gly-Arg-(N-Me)Ile-Asp-Arg-Ile-NH2 (peptide)
peptide: H-FGGR[NMeI]DRI-NH2
SMILES: CC[C@H](C)[C@H](NC(=O)[C@H](CCCNC(=N)N)NC(=O)[C@H](CC(=O)O)NC(=O)[C@H]([C@@H](C)CC)N(C)C(=O)[C@H](CCCNC(=N)N)NC(=O)CNC(=O)CNC(=O)[C@@H](N)Cc1ccccc1)C(N)=O
For the molecule B3, the half-inhibitory concentration (IC50) in test [1] came out at 21 nM.
